Experimental data taken from PMC5340868 (mBio, 2017).

How the values were obtained:
[1] = target: T1, rRv3167c (TetR-like regulator) (Mycobacterium tuberculosis, UniProt O53317 1-208); experiment: ITC; ITC: 10 mM phosphate pH 7.2, 136 mM NaCl, 4 mM KCl, 25 C ([…]; conditions: protein: recombinant; tags: N-terminal 6xHis (pET28c, NdeI/BamHI); chain copies: 2; blunt
T1 sequence: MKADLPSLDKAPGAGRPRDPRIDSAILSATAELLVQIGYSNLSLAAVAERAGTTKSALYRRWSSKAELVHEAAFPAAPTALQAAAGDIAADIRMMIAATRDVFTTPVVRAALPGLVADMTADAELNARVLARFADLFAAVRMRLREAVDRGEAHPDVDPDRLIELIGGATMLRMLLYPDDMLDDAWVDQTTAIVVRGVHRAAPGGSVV

[2] = target: the molecule itself; experiment: SEC
[3] = target: T1, rRv3167c (TetR-like regulator); experiment: EMSA; 30 uM protein, 200 nM DNA, 5 mM MgCl2; ITC: 10 mM phosphate pH 7.2, 136 mM NaCl, 4 mM KCl, 25 C ([…]; conditions: protein: recombinant; tags: N-terminal 6xHis (pET28c, NdeI/BamHI); chain copies: 2; blunt

B1: palRv3167c (dsDNA)
DNA 1: TAACGCTACCTAAAGTAGCGTAA
DNA 2: TTACGCTACTTTAGGTAGCGTTA
For B1, the Kd [1] was 12.3 ± 3.2 µM.

B2: recombinant Rv3167c (rRv3167c), N-terminal 6-histidine tag (natural protein)
chain: T1 sequence
notes: also called purified Rv3167c
For B2, the “stoichiometry N” value [2] was 2.

B3: randomized control DNA (Negative+/-) (dsDNA)
DNA 1: AGCCTTGCAGGCTAATCGGTAGCTA
DNA 2: TAGCTACCGATTAGCCTGCAAGGCT
B3: no binding [3].
